Where a chain is given by its changes, count along the chain named. In names and notes the source's numbering stands.

First the molecules themselves.
B1: CE115HA000 S52cL one-arm antibody (antibody, human IgG1, kappa, L234A L235A, N297A, name in Kabat numbering)
heavy: QVQLVESGGGVVQPGRSLRLSCAASGFTFSNAWMHWVRQAPGKGLEWVAQIKAKLNNYATYYAESVKGRFTISRDDSKNSLYLQMNSLKTEDTAVYYCRYVHYGAYYGVDAWGQGTTVTVSSASTKGPSVFPLAPSSKSTSGGTAALGCLVKDYFPEPVTVSWNSGALTSGVHTFPAVLQSSGLYSLSSVVTVPSSSLGTQTYICNVNHKPSNTKVDKKVEPKSCDKTHTCPPCPAPEAAGGPSVFLFPPKPKDTLMISRTPEVTCVVVDVSHEDPEVKFNWYVDGVEVHNAKTKPREEQYASTYRVVSVLTVLHQDWLNGKEYKCKVSNKALPAPIEKTISKAKGQPREPQVYTLPPSRCELTKNQVSLSCAVKGFYPSDIAVEWESNGQPENNYKTTPPVLDSDGSFFLVSKLTVDKSRWQQGNVFSCSVMHEALHNHYTQKSLSLSPDYKDDDDK
chain: EPKSSDKTHTCPPCPAPELLGGPSVFLFPPKPKDTLMISRTPEVTCVVVDVSHEDPEVKFNWYVDGVEVHNAKTKPREEQYNSTYRVVSVLTVLHQDWLNGKEYKCKVSNKALPAPIEKTISKAKGQPREPQVCTLPPSRDELTKNQVSLWCLVKGFYPSDIAVEWESNGQPENNYKTTPPVLDSDGSFFLYSKLTVDKSRWQQGNVFSCSVMHEALHNRYTQKSLSLSP
light: DIVMTQSPLSLPVTPGEPASISCRSSQSLVHSNRNTYLHWYQQKPGQAPRLLIYKVSNRFSGVPDRFSGSGSGTDFTLKISRVEAEDVGVYYCGQGTQVPYTFGQGTKLEIKRTVAAPSVFIFPPSDEQLKSGTASVVCLLNNFYPREAKVQWKVDNALQSGNSQESVTEQDSKDSTYSLSSTLTLSKADYEKHKVYACEVTHQGLSSPVTKSFNRGEC
B2: CE115HA000 T28S one-arm antibody (antibody, human IgG1, kappa, L234A L235A, N297A, name in Kabat numbering)
heavy: B1 heavy with T28S, L55S
chain: B1 chain
light: B1 light
B3: CE115HA000 T57A one-arm antibody (antibody, human IgG1, kappa, L234A L235A, N297A, name in Kabat numbering)
heavy: B1 heavy with L55S, T60A
chain: B1 chain
light: B1 light
B4: CE115HA000 S74A one-arm antibody (antibody, human IgG1, kappa, L234A L235A, N297A, name in Kabat numbering)
heavy: B1 heavy with L55S, S77A
chain: B1 chain
light: B1 light
B5: CE115HA000 S62D one-arm antibody (antibody, human IgG1, kappa, L234A L235A, N297A, name in Kabat numbering)
heavy: B1 heavy with L55S, S65D
chain: B1 chain
light: B1 light
B6: CE115HA000 V95A one-arm antibody (antibody, human IgG1, kappa, L234A L235A, N297A, name in Kabat numbering)
heavy: B1 heavy with L55S, V101A
chain: B1 chain
light: B1 light
B7: CE115HA000 T28D one-arm antibody (antibody, human IgG1, kappa, L234A L235A, N297A, name in Kabat numbering)
heavy: B1 heavy with T28D, L55S
chain: B1 chain
light: B1 light
B8: CE115HA000 S62E one-arm antibody (antibody, human IgG1, kappa, L234A L235A, N297A, name in Kabat numbering)
heavy: B1 heavy with L55S, S65E
chain: B1 chain
light: B1 light
B9: CE115HA000 V11L one-arm antibody (antibody, human IgG1, kappa, L234A L235A, N297A, name in Kabat numbering)
heavy: B1 heavy with V11L, L55S
chain: B1 chain
light: B1 light
B10: CE115HA000 S77T one-arm antibody (antibody, human IgG1, kappa, L234A L235A, N297A, name in Kabat numbering)
heavy: B1 heavy with L55S, S80T
chain: B1 chain
light: B1 light
B11: CE115HA000 S52cV one-arm antibody (antibody, human IgG1, kappa, L234A L235A, N297A, name in Kabat numbering)
heavy: B1 heavy with L55V
chain: B1 chain
light: B1 light
B12: CE115HA000 T57K one-arm antibody (antibody, human IgG1, kappa, L234A L235A, N297A, name in Kabat numbering)
heavy: B1 heavy with L55S, T60K
chain: B1 chain
light: B1 light
B13: CE115HA000 T57I one-arm antibody (antibody, human IgG1, kappa, L234A L235A, N297A, name in Kabat numbering)
heavy: B1 heavy with L55S, T60I
chain: B1 chain
light: B1 light
B14: CE115HA000 S52cQ one-arm antibody (antibody, human IgG1, kappa, L234A L235A, N297A, name in Kabat numbering)
heavy: B1 heavy with L55Q
chain: B1 chain
light: B1 light
B15: CE115HA000 S62K one-arm antibody (antibody, human IgG1, kappa, L234A L235A, N297A, name in Kabat numbering)
heavy: B1 heavy with L55S, S65K
chain: B1 chain
light: B1 light
B16: CE115HA000 S62P one-arm antibody (antibody, human IgG1, kappa, L234A L235A, N297A, name in Kabat numbering)
heavy: B1 heavy with L55S, S65P
chain: B1 chain
light: B1 light
B17: CE115HA000 V95D one-arm antibody (antibody, human IgG1, kappa, L234A L235A, N297A, name in Kabat numbering)
heavy: B1 heavy with L55S, V101D
chain: B1 chain
light: B1 light
B18: CE115HA000 V95E one-arm antibody (antibody, human IgG1, kappa, L234A L235A, N297A, name in Kabat numbering)
heavy: B1 heavy with L55S, V101E
chain: B1 chain
light: B1 light
B19: CE115HA000 S52cY one-arm antibody (antibody, human IgG1, kappa, L234A L235A, N297A, name in Kabat numbering)
heavy: B1 heavy with L55Y
chain: B1 chain
light: B1 light
B20: CE115HA000 S74P one-arm antibody (antibody, human IgG1, kappa, L234A L235A, N297A, name in Kabat numbering)
heavy: B1 heavy with L55S, S77P
chain: B1 chain
light: B1 light
B21: CE115HA000 T57N one-arm antibody (antibody, human IgG1, kappa, L234A L235A, N297A, name in Kabat numbering)
heavy: B1 heavy with L55S, T60N
chain: B1 chain
light: B1 light

T1 sequence (P07766 23-126 limits assumed): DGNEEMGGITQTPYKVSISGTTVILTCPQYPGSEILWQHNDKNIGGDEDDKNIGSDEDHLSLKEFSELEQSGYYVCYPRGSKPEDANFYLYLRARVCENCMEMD

The test concerns the target T1, CD3ε homodimer protein (human, UniProt P07766 23-126, limits assumed, sulfo-tag or biotin label in the ECL assays; amine-coupled to the chip in SPR).
T1 construct: also called human CD3ε homodimer protein; CD3 (CD3ε)
The experiment in a line: SPR Biacore T200; CD3ε homodimer on CM4 chip.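 Further: Single-residue variant antibodies injected as analyte over CD3ε homodimer immobilized by amine coupling, run at 25 °C in HBS-EP+ buffer.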
Protocol: An appropriate amount of CD3ε homodimer protein was immobilized onto Sensor chip CM4 (GE Healthcare Japan Corp.) by the amine coupling method. Then, the antibody having an appropriate concentration was injected thereto as an analyte and allowed to interact with the CD3ε homodimer protein on the sensor chip. Then, the sensor chip was regenerated by the injection of 10 mmol/L glycine-HCl (pH 1.5). The assay was conducted at 25° C., and HBS-EP+ (GE Healthcare Japan Corp.) was used as a running buffer. […] Each parameter was calculated using Biacore T200 Evaluation Software (GE Healthcare Japan Corp.).
In the case of B1, the “ratio of amounts bound Z=Y/X (altered form / CE115HA000)” value is 0.98. Next, B2: 0.91; B3: 0.98. Then B4, with 1.05; and B5, with 0.92. Next, B6: 0.11; B7: 0.56; B8: 0.92. B9: the “ratio of amounts bound Z=Y/X (altered form / CE115HA000)” value was 1. As to B10, the “ratio of amounts bound Z=Y/X (altered form / CE115HA000)” value was 0.9. For B11, the “ratio of amounts bound Z=Y/X (altered form / CE115HA000)” value was determined as 0.93.

As for B12, the “ratio of amounts bound Z=Y/X (altered form / CE115HA000)” value amounted to 1.32. In the case of B13, the “ratio of amounts bound Z=Y/X (altered form / CE115HA000)” value was 0.61. Then B14, with 1.04; and B15, with 1.19; and B16, with 1. B17: the “ratio of amounts bound Z=Y/X (altered form / CE115HA000)” value was found to be 0.24. As for B18, the “ratio of amounts bound Z=Y/X (altered form / CE115HA000)” value worked out at 0.24. As for B19, the “ratio of amounts bound Z=Y/X (altered form / CE115HA000)” value was 1.11. Then B20, with 0.91; and B21, with 0.97.

These data come from patent publication US20260049138A1 (Chugai, published 2026).
